The source of these data is patent US20240285738A1 (IMMATICS BIOTECHNOLOGIES, published 2024).

For the assay, the target named is T1, HLA-A*02:01 (human).
T1 construct: MHC monomer first loaded with a UV-sensitive peptide that is cleaved by UV light and exchanged for the test peptide; captured on streptavidin plates and detected with anti-b2m; also called peptide-receptive MHC molecules; MHC class I
Put plainly: UV peptide-exchange ELISA, exchange yield grade. An excerpt: Candidate peptides for T cell based therapies according to the present invention were further tested for their MHC binding capacity (affinity). The individual peptide-MHC complexes were produced by UV-ligand exchange, where a UV-sensitive peptide is cleaved upon UV-irradiation, and exchanged with the peptide of interest as analyzed. Only peptide candidates that can effectively bind and stabilize the peptide-receptive MHC molecules prevent dissociation of the MHC complexes. To determine the yield of the exchange reaction, an ELISA was performed based on the detection of the light chain (B2m) of stabilized MHC complexes. The assay was performed as generally described in Rodenko et al. (Rodenko et al., 2006).
96 well MAXISorp plates (NUNC) were coated over night with 2 μg/ml streptavidin in PBS at room temperature, washed 4× and blocked for 1 h at 37° C. in 2% BSA containing blocking buffer. Refolded HLA-A*02:01/MLA-001 monomers served as standards, covering the range of 15-500 ng/ml. Peptide-MHC monomers of the UV-exchange reaction were diluted 100 fold in blocking buffer. Samples were incubated for 1h at 37° C., washed four times, incubated with 2 μg/ml HRP conjugated anti-β2m for 1h at 37° C., washed again and detected with TMB solution that is stopped with […]. Absorption was measured at 450 nm. Candidate peptides that show a high exchange yield (preferably higher than 50%, most preferred higher than 75%) are generally preferred for a generation and production of antibodies or fragments thereof, and/or T cell receptors or fragments thereof, as they show sufficient avidity to the MHC molecules and prevent dissociation of the MHC complexes.
Background: In an ELISA, binding on a coated surface is turned into a signal by an enzyme label.
FIMEGGAMVL: the peptide exchange yield was 50 to 75%.

FILPSSLYL displayed a peptide exchange yield not below 75%.

LAIVPVNTL displayed a peptide exchange yield of 50 to 75%.
